40 sequences from the nanobody polyreactivity screen of Harvey et al. (2022) can be followed below.

This series can be described thus: yeast display, Sf9 membrane polyspecificity reagent, FACS + sequencing; frameworks hold sequencing errors. An outline of the steps: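 Using colony PCR, genes from sorted yeast display clones were amplified, then sequenced on MiSeq at 2 × 250 and filtered by CDR length. The clones had been stained with 10% biotinylated, detergent-solubilized Sf9 membrane reagent for 1 hour at 4 °C and sorted by FACS into low and high (top ~1%) gates on anti-HA and streptavidin fluorescence. Polyreactivity labels come from the gate of origin.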
Turning to “QVQLVESGGGLVQAGGSLRLSCAASGNMFYANAMGWYRQAPGKERELVAAISGSVCSTYADSVKGRFTISRDNAKNTVYLQMNSLKPEDTAVYYCNASVLDAIFYKSVGYDYWGQGTQVTVSS”, the “polyreactivity (PSR sort gate)” value is “low polyreactivity”.

In the case of “QVQLVESGGGLVQAGGSLRLSCAASGNNFLLYAMVWYRQAPGKEREFVAAITWIAGSTYYADSVKGRFTISRDNAKNTVYLQMNSLKPEDTAVYYCAADSYWYDMDYWGQGTQVTVSS”, the “polyreactivity (PSR sort gate)” value is reported as “high polyreactivity”.

In the case of “QVQLVESGGGLVQAGGSLRLSCAASGNNFRRYAMGWSRQAPGKERELVAAITWRGGNTYYADSVKGRFTISRDIAKNTVYLQRNSLKPEDTAVYYCNRVYRQRLGRDYWGQGTQVTVSS”, the “polyreactivity (PSR sort gate)” value is reported as “high polyreactivity”.

On to “QVQLVESGGGLVQAGGSLRLSCAASGNTFAFNAMGWYRQATGKEREFVAAISYSGVSTYYADSVKGRFTISRDNAKNTVYLQMNSLKPEDTAVYYCAARYGWYKYWYDYWGQGTQVTVSS”, for which the “polyreactivity (PSR sort gate)” value was “high polyreactivity”.

As for “QVQLVESGGGLVQAGGSLRLSCAASGNTFAYYAMGWYRQAPGKERELVAAISGSGGRTYYADSVKGRFTISRDNAKNTVYFQMNILKPEDTAVYYCNARPAGGLGYGYWGQGTQVTVSS”, the “polyreactivity (PSR sort gate)” value was “high polyreactivity”.

In the case of “QVQLVESGGGLVQAGGSLRLSCAASGNTFDSYVMGWYRQAPGKERELVAAISYRGGSTYYADSVKGRFTISRDNAKNTVYLQMNSLKPEDSAVYFCAADYFYYVYSYWYDSWGQGTQVTVSS”, the “polyreactivity (PSR sort gate)” value is on record as “high polyreactivity”.

For the sequence “QVQLVESGGGLVQAGGSLRLSCAASGNTFGAYAMGWYRQAPGKERELVAAITWSGGRTYYADSVKGRFTISRDNAKNTVYLQMNSLKPEDTAVYYCAADYGYYRGGVRFGYWGQGTQVTVSS”, the “polyreactivity (PSR sort gate)” value is listed as “high polyreactivity”.

In the case of “QVQLVESGGGLVQAGGSLRLSCAASGNTFGENAMGWYRQAPGKERELVAAISNGGTTNYADSVKGRFTISRDNAKNTVYLQMNSLKPEDTAVYYCNAKFGISQPGHSGLLKMDYWGQGTQVTVSS”, the “polyreactivity (PSR sort gate)” value is “low polyreactivity”.

Take “QVQLVESGGGLVQAGGSLRLSCAASGNTFGENAMGWYRQAPWKERELVAAISNGGTTNYADSVKGRFTISRDNAKNTVYLQMNSLKPEDTAVYYSNAKFGISQPGHSGLLKMDYWGQGTQVTVSS”: the “polyreactivity (PSR sort gate)” value was “low polyreactivity”.

Turning to “QVQLVESGGGLVQAGGSLRLSCAASGNTFGFNTMGWYRQAPGKERELVAAISKSGTRTFYADSVKGRFTISRDNAKNTVYLQMNSLKPEDTAVYYCAAVAKGGNWPAQGGGHDYWGQGTQVTVSS”, the “polyreactivity (PSR sort gate)” value was “high polyreactivity”.

“QVQLVESGGGLVQAGGSLRLSCAASGNTFGIYAMGWYRQAPGKERELVAAISSGTSTNYADSVKGRFTISRDNAKNTVYLQMNSMKPEDTAVYYCNADDQYQDVREDYWGQGTQVTVSS”: the “polyreactivity (PSR sort gate)” value is “low polyreactivity”.

Regarding “QVQLVESGGGLVQAGGSLRLSCAASGNTFGRNAMGWYIQAPGKERELVAAIDIGADTNYADSVKGRFTISRDNAKNTVYLQMNSLKPEDTAVYYCAASYRYVRWKWGYNYWGQGTQVTVSS”, the “polyreactivity (PSR sort gate)” value was “high polyreactivity”.

Regarding “QVQLVESGGGLVQAGGSLRLSCAASGNTFGWNAMGWSRQAPGKERELVAAIDIGADTNYADSVKGRFTISRDNAKNTVYLQMNSLKPEDTAVYYCAASYRYVRWKWGYNYWGQGTQVTVSS”, the “polyreactivity (PSR sort gate)” value is on record as “high polyreactivity”.

For “QVQLVESGGGLVQAGGSLRLSCAASGNTFGYYAMGWYRQAPGKERELVAAINFGGDTSYADSVKGRFTISRDNAKNTVYLQMNSLKPEDTAVYYCAADGSYWIYADGDYWGQGTQVTVSS”, the “polyreactivity (PSR sort gate)” value is recorded as “low polyreactivity”.

Take “QVQLVESGGGLVQAGGSLRLSCAASGNTFHTNAMGWYRQAPGKERELVAAITGGGSTYYADSVKGRFTISRDNAKNTVYLQMNSLKPEDTAVYYCNTDVPYGLDVSDTIDYYYWGQGTQVTVSS”: the “polyreactivity (PSR sort gate)” value is given as “low polyreactivity”.

With “QVQLVESGGGLVQAGGSLRLSCAASGNTFKYYAMGWYRQAPGKERELVAAITWNGARTYYADSVKGRFTISRDNAKNTVYLQMNSLKPEDTAVYYCNARQGYRFDYWGQGTQVTVSS”, the “polyreactivity (PSR sort gate)” value is “high polyreactivity”.

As to “QVQLVESGGGLVQAGGSLRLSCAASGNTFNAFNAMGWYRQAPGKERELVAAISRRGGSTYYADSVKGRFTISRDNAKNTVYLQMNSLKPEDTAVYYGAAYYSRSKYDYWGQGTQVTVSS”, the “polyreactivity (PSR sort gate)” value is reported as “high polyreactivity”.

With “QVQLVESGGGLVQAGGSLRLSCAASGNTFPFNAMGWYRQAPGKERELVAAISRGGSTYYADSVKGRFTISRDNAKNTVYLQMNSLKPDDTAVYYCAAGYRRQGYGGYDYWGQGTQVTVSS”, the “polyreactivity (PSR sort gate)” value is “high polyreactivity”.

Turning to “QVQLVESGGGLVQAGGSLRLSCAASGNTFPVYAMGWYRQASGKERELVATITSGGSTNYADSVKGRFTISRDNAKNTVYLQMNSLKPEDTAVYDCARRAVYAKRRYDYWGQGTQVTVSS”, the “polyreactivity (PSR sort gate)” value is listed as “low polyreactivity”.

For the sequence “QVQLVESGGGLVQAGGSLRLSCAASGNTFQYYALGWYRQAPGKERELVAAITTGGSKNFADSVKGRFTISRDNAKNTVYLQMNSLKPEDTAVYYCAARGGVSKRISDYWGQGTQVTVSS”, the “polyreactivity (PSR sort gate)” value is on record as “low polyreactivity”.

As for “QVQLVESGGGLVQAGGSLRLSCAASGNTFRDYAMGWYRQAPGKERELVAAITSSGARTYYADSVKGRFTISRDNAKNTVYLQMNSLKPEDTAVYYCAADWSGYYTYDYWGQGTQVTVSS”, the “polyreactivity (PSR sort gate)” value is given as “low polyreactivity”.

On to “QVQLVESGGGLVQAGGSLRLSCAASGNTFRGYAMGWSRQAPGKEMELVAAITSGGRTYYADSVKGRFTISRDNAKNTVYLQMNSLKPEDTAVYYCNARQFAGDEWGQGTLVTVSS”, for which the “polyreactivity (PSR sort gate)” value was “high polyreactivity”.

As to “QVQLVESGGGLVQAGGSLRLSCAASGNTFRSYVMGWYRQAPGKERELVADISSGDGTNYADSVKGRFTISRDNAKNTVYLQMNSLKPEDTAVYYCAKDVYNFRTTHSYFTGYDSWGQGTQVTVSS”, the “polyreactivity (PSR sort gate)” value is on record as “low polyreactivity”.

With “QVQLVESGGGLVQAGGSLRLSCAASGNTFRYYAMGWYRQAPGKERELVATITSGGRTYYADSVKGRFTISRDNAKNTVYLQMNSLKPEDTAVYYCAAVGLDYFVGEYDYWGQGTQLTVSS”, the “polyreactivity (PSR sort gate)” value is reported as “low polyreactivity”.

For the sequence “QVQLVESGGGLVQAGGSLRLSCAASGNTFSAYAMGWYRQAPGKERELVAAISSRGGSTYYADSVKGRFTISRDNAKNTVYLQMNSLKPEDTAVYYCAAGWFGTSYRYRSSFDYWGQGTQVTVSS”, the “polyreactivity (PSR sort gate)” value is reported as “high polyreactivity”.

For “QVQLVESGGGLVQAGGSLRLSCAASGNTFSDYSMGWYRQAPGNERELVAAITISGGSTYYADSVKGRFTISRDNAKNTVYLQMNSLKPEDTAVYYCAADVWYILYDYWGQGTQVTVSS”, the “polyreactivity (PSR sort gate)” value is recorded as “low polyreactivity”.

Regarding “QVQLVESGGGLVQAGGSLRLSCAASGNTFSGNAMGWYRQAPGKERELVAAISGSGASTYYADSVKGRFTISRDNAKNTVYLQMNSLKPEDTAVYYCAADKPGIFSRFDYWGQGTQVTVSS”, the “polyreactivity (PSR sort gate)” value is recorded as “low polyreactivity”.

Turning to “QVQLVESGGGLVQAGGSLRLSCAASGNTFSLYAMGWYRQAPGKERELVAAITWITGSTDYADSVKGRFTISRDNAKNTVYLQMNSLKPEDTAVYYCAADGDFSWFYSYETGWIEYDYWGQGTQVTVSS”, the “polyreactivity (PSR sort gate)” value was “low polyreactivity”.

For the sequence “QVQLVESGGGLVQAGGSLRLSCAASGNTFSSNAMGWYRQAPGKERELVAGITKSGGRTYYADSVKGRFTISRDNAKNTVYLQMNSLKPEDTAVYYCNRRAGPYSIPYYYWGQGTQVTVSS”, the “polyreactivity (PSR sort gate)” value is given as “high polyreactivity”.

For the sequence “QVQLVESGGGLVQAGGSLRLSCAASGNTFSTYGMGWYRQAPGKERELVAGITSDGRTNYADSVKGRFTISRDNAKNTVYLQMNSMKPEVTAVYYCAAEWASRFAVFWAYPKYDYWGQGTQVTVSS”, the “polyreactivity (PSR sort gate)” value is “low polyreactivity”.

With “QVQLVESGGGLVQAGGSLRLSCAASGNTFSWYAMGWYRQAPWKERELVAVITSGGSTNYADSVKGRFTISRDNAKNTVYLQMNSLKTEDTAVYYFAADSYGGSKYDYWGQGTQVTVSS”, the “polyreactivity (PSR sort gate)” value is on record as “low polyreactivity”.

“QVQLVESGGGLVQAGGSLRLSCAASGNTFTGYAMGWYREAPGKERELVAAITRSGRTYYADSVKGRFTISRDNAKNTVYLQMTSLKPEDTAVYYCAADRRYVKYYYSGQGTQVTVSS”: the “polyreactivity (PSR sort gate)” value was “high polyreactivity”.

For the sequence “QVQLVESGGGLVQAGGSLRLSCAASGNTFTWYTMGWYRQAPGKERELVAVITSDGSTYYADSVKGRFTISRDNAKNTVYLQMNSLKPEDTAVYYCNALSADWYPEEDYWGQGTQVTVSS”, the “polyreactivity (PSR sort gate)” value is reported as “low polyreactivity”.

Regarding “QVQLVESGGGLVQAGGSLRLSCAASGNTFVKYVIGWYRQAPGKEREYVAAITVRGNTYYADSVKGRFTISRDNAKNTVYLQMNSLKPEDTAVYYCAARIYYLYKDRRLGYYWGQGTQVTVSS”, the “polyreactivity (PSR sort gate)” value is “high polyreactivity”.

“QVQLVESGGGLVQAGGSLRLSCAASGNTFVYYAMGWYRQAPGKERELVAGISRRSGSTYYADSVKGRFTISRDNAKNTVYLQMNSLKPEDTAVYYCAKGRTYLDADDYWGQGTQVTVSS”: the “polyreactivity (PSR sort gate)” value is “low polyreactivity”.

For the sequence “QVQLVESGGGLVQAGGSLRLSCAASGNTFVYYNMGWYRQAPGKERELVAAINWSGGSTYYADSVKGRFTISRDNAKNTVYLQMNSLKPEDTAVYYCAADTSYYPYEYWGQGTQVTVSS”, the “polyreactivity (PSR sort gate)” value was “high polyreactivity”.

Turning to “QVQLVESGGGLVQAGGSLRLSCAASGNTFWRYAMGWYRQAPGKERELVAAITYTSGSTYYADSVKGRFTISRDNAKNTVYLQMNSLKPEDTAVYYCAAESVYGSGYVFRYYYWGQGTQVSVSS”, the “polyreactivity (PSR sort gate)” value is “high polyreactivity”.

For “QVQLVESGGGLVQAGGSLRLSCAASGNTFYDYGMGWYRQAPGKERELVAGIDGSSTYYADSVKGRFTISRDNAKNTVYLQMNSLKPEDTAVYYCAAYVGSYVSYRAYPRIYYYWGQGTQVTLSS”, the “polyreactivity (PSR sort gate)” value is on record as “low polyreactivity”.

As to “QVQLVESGGGLVQAGGSLRLSCAASGNTFYGYAIGWYRQAPGKERELVASITLSGDSTYYADSVKGRFTISRDNAKNTVYLQMNSLKPEDTAVYYCAGVYTYPLGYYHYTYDYWGQGTQVTVSS”, the “polyreactivity (PSR sort gate)” value is reported as “low polyreactivity”.

On to “QVQLVESGGGLVQAGGSLRLSCAASGNTFYGYAMGWYRQAPGKERDLVATITGSGGDTYYADSVKGRFTISRDNAKNTVYLKMNSLKPEDTAVYYCNAVEYYGGYPGTQYYYLAYNYWGQGTQVTVSS”, for which the “polyreactivity (PSR sort gate)” value was “low polyreactivity”.
